This is an account of results in patent US9724381B2 (THE ADMINISTRATORS OF THE TULANE EDUCATIONAL FUND, priority 2009, dated 2017).

Where two headings read alike, the source gives them in different places. Where no end group is shown, it is not given here. [ ]: non-standard residue; d: D form. The star is where a group is joined. d2Nal = N[C@H](Cc1ccc2ccccc2c1)C(=O)O; Palmitoyl = CCCCCCCCCCCCCCCC(=O)*; Octanoyl = CCCCCCCC(=O)*; Dap = NC[C@H](N)C(=O)O

Experiment [1] has as its target T1, ghrelin-R (GHS-R 1a) (Rattus norvegicus, UniProt O08725).
T1 construct: from tissue; host or cells: whole animal (hypothalamus)
As to the kind of experiment: Food intake after administration of peptide (FIG. 10). In kind it is in vivo.

For experiment [2], the target named is T1, ghrelin-R (GHS-R 1a). As to the kind of experiment: Plasma growth hormone / GH secretion after administration of peptide (FIG. 11). In kind it is in vivo.
Experiment [3] has as its target T2, ghrelin O-acyltransferase (GOAT) (Mus musculus, UniProt P0C7A3).
T2 sequence (P0C7A3 1-435): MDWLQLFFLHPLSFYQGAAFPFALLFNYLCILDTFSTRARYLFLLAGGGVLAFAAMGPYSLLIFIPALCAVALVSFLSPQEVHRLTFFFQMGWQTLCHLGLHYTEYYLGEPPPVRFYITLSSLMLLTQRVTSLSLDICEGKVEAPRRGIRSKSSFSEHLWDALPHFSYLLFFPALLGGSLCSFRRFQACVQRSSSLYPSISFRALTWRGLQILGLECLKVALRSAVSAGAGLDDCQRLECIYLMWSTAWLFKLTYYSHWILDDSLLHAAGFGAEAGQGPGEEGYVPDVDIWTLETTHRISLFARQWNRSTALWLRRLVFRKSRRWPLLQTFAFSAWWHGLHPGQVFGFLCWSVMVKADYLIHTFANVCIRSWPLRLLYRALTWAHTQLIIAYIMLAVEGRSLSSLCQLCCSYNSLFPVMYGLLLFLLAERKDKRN
Particulars: Yang et al. 2008; cited from earlier work.

Experiment [4] deals with T3, GHS-R 1a (Rattus norvegicus, UniProt O08725).
T3 construct: free-moving rats were i.c.v. injected with either normal saline or GHS-A (5 μg); from tissue; host or cells: whole animal (rat; hypothalamus/pituitary)
The experiment in a line: Spontaneous and ghrelin-induced food intake in rats after i.c.v. GHS-A. In kind it is in vivo. As to the method:
(§1) Adult male Sprague Dawley rats (225-260 g) were purchased from Charles River Canada (St. Constant, Canada) and individually housed on a 12-h light, 12-h dark cycle (lights on, 0600-1800 h) in a temperature (22±1° C.)- and humidity-controlled room. Purina rat chow (Ralston Purina Co., St. Louis, Mo.) and tap water were available ad libitum.
(§2) Chronic intracerebroventricular (i.c.v.) and intracardiac venous cannulas were implanted under sodium pentobarbital (50 mg/kg, i.p.) anesthesia using previously described techniques in (2) and (11). The placement of the icy cannulae was verified by both a positive drinking response to i.c.v. carbachol (100 ng/10 μl) injection on the day after surgery and methylene blue dye at the time of death. After surgery, the rats were placed directly in isolation test chambers with food and H2O freely available until body weight returned to preoperative levels (usually within 5-7 d). During this time the rats were handled daily to minimize any stress associated with handling on the day of the experiment. On the test day, food was removed 1.5 h before the start of sampling and was returned at the end.
The effects of the GHS-A on both spontaneous and ghrelin-induced food intake and body weight gain were investigated. For the spontaneous experiments, the rats were fasted overnight (1600-1100 h next morning) and were i.c.v.-injected with either normal saline or GHS-A (5 μg) at 1100 h. Food intake was monitored on an hourly basis for 5 h after the initial injection (until 1600 h) and subsequently overnight (1600-0900 h next morning). A measured amount of rat chow pellets was placed in the cage every hour. Spillage was collected by placement of a diaper under the rat cages, and total food consumed for each period was calculated by subtracting uneaten food plus spillage from total given. Body weights were recorded daily at 0900 h. The latency to the onset of the first meal after the injection and the duration of that meal were also monitored.
Food intake was monitored on an hourly basis as described above. In this experiment, food was removed 1.5 h before the start of the test.

The target of experiment [5] is T3, GHS-R 1a. As to the kind of experiment: Plasma GH (ghrelin-induced, GHRH-induced, spontaneous pulsatile) in free-moving adult male rats after GHS-A. Particulars: for plasma GH response to ghrelin, central: 5 μg GHS-A i.c.v. 15 min before 500 ng ghrelin i.c.v. Format: in vivo. As to the method: as §1, §2
The efficacy of GHS-A to antagonize ghrelin's stimulatory action on GH at both central and peripheral sites was examined. […] (500 ng). Both the human ghrelin peptide (provided by Dr. K. Chang, Phoenix Pharmaceuticals, Inc., Belmont, Calif.) and the GHS-A were diluted in normal saline just before use. Blood samples (0.35 ml) were withdrawn every 15 min over a 6-h sampling period (1000-1600 h) from all animals. […] All blood samples were immediately centrifuged, and plasma was separated and stored at −20° C. for subsequent assay of GH. To avoid hemodynamic disturbance, the red blood cells were resuspended in normal saline and returned to the animal after removal of the next blood sample.
Blood samples were withdrawn from 1000-1600 h, as described above.
These time points were chosen because they correspond closely to the time of onset of the spontaneous GH secretory episodes, as previously documented in our laboratory (2, 4). Blood samples were withdrawn from 1000-1600 h, as described above; however, no blood sample was withdrawn 5 min after the injections.

In experiment [6] the target is Ghrelin/GHRP/GHS Receptor (Rattus norvegicus, UniProt O08725). The experiment in a line: In vivo GH release in rat (serum GH by RIA after i.v. peptide). As to conditions: Table 2. The method, then:
For the in vivo assay of GH Release in rat, immature female Sprague Dawley rats were obtained from Charles River from Wilmington, Mass. After arrival they were housed at 25° C. with a 14:10 h light:dark cycle. Water and Purina rat chow were available at libitum. Pups were weaned at 21 days of age.
Immature twenty six day old female Sprague Dawley rats, 3-6 rats per treatment dose, were pretreated with pentobarbital 20 minutes before iv injection of vehicle/peptide or peptide plus stimulator. Injection was made as a 0.1 ml solution. For the non-pentobarbital treated rat assay, peptides were administered iv into the tail vein of conscious rats. All animals were sacrificed by guillotine after iv peptide or vehicle. Trunk blood was collected at +10-15 minutes […], allowed to clot, centrifuged and serum stored until assayed for GH levels by RIA. The GH RIA reagents were distributed by the NIH. Control data was collected from rats treated with only the corresponding vehicle in the absence of peptide or stimulator. Control stimulated data was collected from rats treated with stimulator alone in the absence of any peptide.

[7] abbreviates: listed as Gly-Met-Ala-Gly-Ser-(Dap-Palmityl)-Phe-Leu-Ser-Pro-Glu-His-NH2.
[8] abbreviates: listed as Gly-Met-Ala-Gly-Ser-(Dap-Oct)-Phe-Leu-Ser-Pro-Glu-His-NH2.
The mark [9] stands for this setting: overnight-fasted animals, 5 μg GHS-A i.c.v.
The mark [10] stands for this setting: 5 μg GHS-A i.c.v., spontaneous GH pulses.

T3 sequence (O08725 whole entry): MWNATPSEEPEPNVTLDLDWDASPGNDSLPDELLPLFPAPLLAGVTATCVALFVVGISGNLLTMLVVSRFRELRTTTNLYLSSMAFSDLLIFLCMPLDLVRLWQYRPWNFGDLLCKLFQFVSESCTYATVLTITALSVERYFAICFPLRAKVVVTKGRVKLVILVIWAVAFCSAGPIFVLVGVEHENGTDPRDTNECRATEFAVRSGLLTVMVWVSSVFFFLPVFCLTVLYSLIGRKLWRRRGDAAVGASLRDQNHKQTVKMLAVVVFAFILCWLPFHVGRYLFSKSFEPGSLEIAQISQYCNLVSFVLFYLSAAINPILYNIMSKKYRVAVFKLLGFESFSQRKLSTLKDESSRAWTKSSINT
T1 sequence (O08725 whole entry): as above
Sequence of Ghrelin/GHRP/GHS Receptor (O08725 whole entry): as above

Consider “Gly-Met-Ala-Gly-Ser-(Dap-Palmityl)-Phe-Leu-Ser-Pro-Glu-His-NH2 (GMAGS[Dap](Palmitoyl)FLSPEH-NH2; N-terminus assumed; SMILES CCCCCCCCCCCCCCCC(=O)NC[C@H](NC(=O)[C@H](CO)NC(=O)CNC(=O)[C@H](C)NC(=O)[C@H](CCSC)NC(=O)CN)C(=O)N[C@@H](Cc1ccccc1)C(=O)N[C@@H](CC(C)C)C(=O)N[C@@H](CO)C(=O)N1CCC[C@H]1C(=O)N[C@@H](CCC(=O)O)C(=O)N[C@@H](Cc1c[nH]cn1)C(N)=O) [peptide #6]”, for which the food intake entry in the experiment with ghrelin-R (GHS-R 1a) [1] (setting [7]) is “did not inhibit GH secretion or decreased food intake”. In the experiment with ghrelin-R (GHS-R 1a) [2] (setting [7]), the “growth hormone secretion / plasma growth hormone levels” value is on record as “did not inhibit”.

“Gly-Met-Ala-Gly-Ser-(Dap-Oct)-Phe-Leu-Ser-Pro-Glu-His-NH2 (GMAGS[Dap](Octanoyl)FLSPEH-NH2; N-terminus assumed; SMILES CCCCCCCC(=O)NC[C@H](NC(=O)[C@H](CO)NC(=O)CNC(=O)[C@H](C)NC(=O)[C@H](CCSC)NC(=O)CN)C(=O)N[C@@H](Cc1ccccc1)C(=O)N[C@@H](CC(C)C)C(=O)N[C@@H](CO)C(=O)N1CCC[C@H]1C(=O)N[C@@H](CCC(=O)O)C(=O)N[C@@H](Cc1c[nH]cn1)C(N)=O) [peptide #3]”: the values for the food intake entry with ghrelin-R (GHS-R 1a) [1] and with ghrelin-R (GHS-R 1a) [1] (setting [8]) were “inhibited food intake” and “reduced”, respectively. For the same substance, the “growth hormone secretion / plasma growth hormone levels” value with ghrelin-R (GHS-R 1a) [2] was “inhibited growth hormone secretion”; in the experiment with ghrelin-R (GHS-R 1a) [2] (setting [8]), “inhibited”.

For the substance “Gly-Ser-Ser(Oct)-Phe-Leu (GSS(Octanoyl)FL) [octanoylated ghrelin pentapeptide]”, in experiment [3], the GOAT activity result is listed as “inhibited” and the “potency enhancement when octanoylated serine-3 replaced by octanoylated diaminopropionic acid” value is 45 fold.

Take “His-DβNal-DLys-Trp-DPhe-Lys-NH2 (H[d2Nal][dK]W[dF]K-NH2; N-terminus assumed; SMILES NCCCC[C@H](NC(=O)[C@@H](Cc1ccccc1)NC(=O)[C@H](Cc1c[nH]c2ccccc12)NC(=O)[C@@H](CCCCN)NC(=O)[C@@H](Cc1ccc2ccccc2c1)NC(=O)[C@@H](N)Cc1c[nH]cn1)C(N)=O) [GHRP derivative ghrelin receptor antagonist; GHS-A of the rat studies per b295]”: the “cumulative food intake, ghrelin-stimulated” value in the experiment with GHS-R 1a [4] (5 μg GHS-A i.c.v. before ghrelin 500 ng i.c.v., up to 5 h after injection) is “significantly suppressed”. The “ghrelin-stimulated food intake in the first hour after injections” value with GHS-R 1a [4] (5 μg i.c.v. before ghrelin 500 ng i.c.v.) is on record as “significantly inhibited”. In addition, in the experiment with GHS-R 1a [4] (setting [9]), the “cumulative food intake beyond the first hour after injection” value is reported as “not inhibited” and the “spontaneous food intake in the first hour after injection” value is “significantly inhibited”. In addition, in the experiment with GHS-R 1a [5] (5 μg GHS-A i.c.v.), the “1-h GH AUC of the spontaneous GH secretory episode at 1100 h” value was “significantly reduced”, the “1-h GH AUC of the spontaneous GH secretory episode at 1400 h” value was “significantly reduced” and the “overall 6-h GH AUC” value was “significantly reduced”. In addition, the “plasma GH response to ghrelin, central” value with GHS-R 1a [5] (listed as GHS-A) is “abolished”. Further, the “plasma GH response to ghrelin, central” value with GHS-R 1a [5] (listed as HisDβNalDLysTrpDPheLysNH2) was “virtually obliterated”. In the experiment with GHS-R 1a [5] (5 μg GHS-A i.c.v. 15 min before expected GH secretory bursts), the “amplitude of the spontaneous GH pulses” value is on record as “severely attenuated”. Moreover, the “reduction of GH AUC following i.c.v. ghrelin” value in the experiment with GHS-R 1a [5] (5 μg GHS-A i.c.v., ghrelin 500 ng i.c.v., vs normal saline controls) is listed as 15 fold. Also, in the experiment with GHS-R 1a [5] (setting [10]), the “GH interpeak interval (cluster analysis)” value is reported as “no significant effect”, the “GH nadir (cluster analysis)” value was “no significant effect”, the “GH peak frequency (cluster analysis)” value is reported as “no significant effect” and the “GH peak height (cluster analysis)” value was “significant suppression”. In addition, the “plasma GH response to ghrelin, peripheral” value in the experiment with GHS-R 1a [5] (250 μg GHS-A i.v. 15 min before 5 μg ghrelin i.v.) is on record as “strongly blocked”. Besides, the “reduction of GH AUC following i.v. ghrelin” value with GHS-R 1a [5] (250 μg GHS-A i.v., ghrelin 5 μg i.v., vs normal saline controls) came out at 5 fold. The “GH response to GHRH” value in the experiment with GHS-R 1a [5] (GHRH 5 μg i.v.) is given as “did not significantly reduce”. In addition, in experiment [6] (peptide antagonist 30 μg i.v. + stimulator DAla-DβNal-Ala-Trp-DPhe-Lys-NH2 0.3 μg), the “Stimulated GH release from rat” value worked out at 733 ± 85 ng/mL. Besides, the “Stimulated GH release from rat” value in experiment [6] (peptide antagonist 100 μg i.v. + stimulator DAla-DβNal-Ala-Trp-DPhe-Lys-NH2 1 μg) was found to be 818 ± 269 ng/mL.
